Patent publication US7192735

Target: EntF (E. coli enterobactin synthetase component), apo form, P11454
Sequence (P11454 whole entry): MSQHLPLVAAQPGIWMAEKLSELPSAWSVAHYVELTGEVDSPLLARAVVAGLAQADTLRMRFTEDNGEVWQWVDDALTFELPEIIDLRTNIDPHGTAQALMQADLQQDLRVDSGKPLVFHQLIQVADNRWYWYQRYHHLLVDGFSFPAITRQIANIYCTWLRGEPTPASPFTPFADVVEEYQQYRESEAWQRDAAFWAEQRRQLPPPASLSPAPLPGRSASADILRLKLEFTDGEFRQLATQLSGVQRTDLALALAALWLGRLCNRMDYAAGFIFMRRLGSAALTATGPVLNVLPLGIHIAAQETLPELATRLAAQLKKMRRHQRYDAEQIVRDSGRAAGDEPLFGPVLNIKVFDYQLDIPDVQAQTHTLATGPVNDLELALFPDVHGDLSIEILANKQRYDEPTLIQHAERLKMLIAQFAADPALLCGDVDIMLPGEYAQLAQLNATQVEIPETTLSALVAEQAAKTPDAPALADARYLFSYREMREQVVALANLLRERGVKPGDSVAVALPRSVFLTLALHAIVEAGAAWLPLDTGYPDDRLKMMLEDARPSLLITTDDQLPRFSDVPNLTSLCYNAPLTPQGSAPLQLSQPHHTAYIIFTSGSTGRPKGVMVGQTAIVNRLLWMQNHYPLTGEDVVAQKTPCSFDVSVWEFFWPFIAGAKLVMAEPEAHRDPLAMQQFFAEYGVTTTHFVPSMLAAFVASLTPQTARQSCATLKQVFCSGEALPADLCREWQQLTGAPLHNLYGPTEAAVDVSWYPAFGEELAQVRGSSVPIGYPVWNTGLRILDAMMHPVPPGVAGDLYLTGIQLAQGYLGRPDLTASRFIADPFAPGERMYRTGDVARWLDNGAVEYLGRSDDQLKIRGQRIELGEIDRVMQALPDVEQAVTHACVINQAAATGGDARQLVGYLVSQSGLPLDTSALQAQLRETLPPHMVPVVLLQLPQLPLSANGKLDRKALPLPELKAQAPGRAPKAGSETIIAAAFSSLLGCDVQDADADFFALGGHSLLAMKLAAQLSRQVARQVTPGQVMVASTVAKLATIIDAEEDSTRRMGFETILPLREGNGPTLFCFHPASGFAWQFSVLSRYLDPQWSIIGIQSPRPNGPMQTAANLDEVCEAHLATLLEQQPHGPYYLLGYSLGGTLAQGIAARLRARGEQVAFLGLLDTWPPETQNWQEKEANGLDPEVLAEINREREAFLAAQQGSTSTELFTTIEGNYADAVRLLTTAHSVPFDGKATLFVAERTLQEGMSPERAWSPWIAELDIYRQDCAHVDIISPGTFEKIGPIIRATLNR

B1: o195 (E. coli ORF of unknown function), recombinant from pET28b-o195 (protein)
chain: MYRIVLGKVSTLSAAPLPPGLREQAPQGPRRERWLAGRALLSHTLSPLPEIIYGEQGKPAFAPEMPLWFNLSHSGDDIALLLSDEGEVGCDIEVIRPRANWRWLANAVFSLGEHAEMDAVHPDQQLEMFWRIWTRKEAIVKQRGGSAWQIVSVDSTYHSSLSVSHCQLENLSLAICTPTPFTLTADSVQWIDSVN
Question: For B1, which “time course of incorporation of radiolabel into EntF” value is on record?
Answer: The value was “EntF undergoes almost no modification in the presence of 15-fold higher concentrations of ACPS and o195”.
